Measured values from patent US20260130997A1 (BEAM THERAPEUTICS, published 2026).
Where a chain is given by its changes, count along the chain named.

Columns and labels:
[1] = biological target: T1, mutant CD45 D1-D2 protein N263S, T264A (Homo sapiens, UniProt P08575 225-394, limits assumed); assay: binding to mutant CD45 D1-D2 protein relative to WT CD45 D1-D2; method not given
T1 chain: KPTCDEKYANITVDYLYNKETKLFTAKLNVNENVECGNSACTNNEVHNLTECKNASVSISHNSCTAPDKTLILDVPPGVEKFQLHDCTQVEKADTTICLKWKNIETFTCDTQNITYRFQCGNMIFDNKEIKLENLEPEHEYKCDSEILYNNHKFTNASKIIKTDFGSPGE

[2] = biological target: T2, mutant CD45 D1-D2 protein I283M, H285R, N286G (Homo sapiens, UniProt P08575 225-394, limits assumed); assay: as above
T2 chain: T1 chain with S39N, A40T, I59M, H61R, N62G

[3] = biological target: T3, mutant CD45 D1-D2 protein E259G, N262D (Homo sapiens, UniProt P08575 225-394, limits assumed); assay: as above
T3 chain: T1 chain with E35G, N38D, S39N, A40T

[4] = biological target: T4, purified CD45 protein E259G (Homo sapiens, UniProt P08575 225-394, limits assumed); assay: biosensor; 100 nM mAb030-9 captured with Anti-Human IgG Fc Capture (AHC), 300 nM purified CD45 protein
T4 construct: Purified CD45 variant of the biosensor assay
T4 chain: T1 chain with E35G, S39N, A40T
Description: (§1) 300 nM of purified CD45 protein was contacted with the immobilized antibody. At 300 s the biosensor was placed in buffer without purified CD45 protein.

[5] = biological target: T5, purified CD45 protein N257G (Homo sapiens, UniProt P08575 225-394, limits assumed); assay: as above
T5 construct: Purified CD45 variant of the biosensor assay
T5 chain: T1 chain with N33G, S39N, A40T
Description: as §1

[6] = biological target: T6, purified CD45 protein E256G (Homo sapiens, UniProt P08575 225-394, limits assumed); assay: as above
T6 construct: Purified CD45 variant of the biosensor assay
T6 chain: T1 chain with E32G, S39N, A40T
Description: as §1

[7] = biological target: T7, purified CD45 protein N286D (Homo sapiens, UniProt P08575 225-394, limits assumed); assay: as above
T7 construct: Purified CD45 variant of the biosensor assay
T7 chain: T1 chain with S39N, A40T, N62D
Description: as §1

[8] = biological target: T8, purified CD45 protein N267S (Homo sapiens, UniProt P08575 225-394, limits assumed); assay: as above
T8 construct: Purified CD45 variant of the biosensor assay
T8 chain: T1 chain with S39N, A40T, N43S
Description: as §1

[9] = biological target: T9, purified CD45 protein N257D (Homo sapiens, UniProt P08575 225-394, limits assumed); assay: as above
T9 construct: Purified CD45 variant of the biosensor assay
T9 chain: T1 chain with N33D, S39N, A40T
Description: as §1

[10] = biological target: T10, purified CD45 protein N267G (Homo sapiens, UniProt P08575 225-394, limits assumed); assay: as above
T10 construct: Purified CD45 variant of the biosensor assay
T10 chain: T1 chain with S39N, A40T, N43G
Description: as §1

B1: mAb U139AGL030-9 (mAb030-9) (antibody, mouse IgG1, kappa, V domains shown)
VH: EVKLLESGGGLVQPGGSLKLSCAASGFDFSRYWMSWVRQAPGKGLEWIGEINPTSSTINFTPSLKDKVFISRDNAKNTLYLQMSKVRSEDTALYYCARGNYYRYGDAMDYWGQGTSVTVSS
VL: DIALTQSPASLAVSLGQRATISCRASKSVSTSGYSYLHWYQQKPGQPPKLLIYLASNLESGVPARFSGSGSGTDFTLNIHPVEEEDAATYYCQHSRELPFTFGSGTKLEIKR
notes: In the biosensor assay the antibody was captured with Anti-Human IgG Fc Capture (AHC); also called mAb30-9; mAb039-9
% Mutant Binding [1]: 122% | % Mutant Binding [2]: 0.7% | % Mutant Binding [3]: 2.3% | response [4]: < 0.05 nm | response [5]: < 0.05 nm | response [6]: < 0.05 nm | response [7]: < 0.05 nm | response [8]: < 0.05 nm | response [9]: < 0.05 nm | response [10]: < 0.05 nm
